# Article PMC4031069 (Nature materials, 2014)
# B1: purified recombinant human αvβ6 integrin (receptor)
# chain 1: FNLDVDSPAEYSGPEGSYFGFAVDFFVPSASSRMFLLVGAPKANTTQPGIVEGGQVLKCDWSSTRRCQPIEFDATGNRDYAKDDPLEFKSHQWFGASVRSKQDKILACAPLYHWRTEMKQEREPVGTCFLQDGTKTVEYAPCRSQDIDADGQGFCQGGFSIDFTKADRVLLGGPGSFYWQGQLISDQVAEIVSKYDPNVYSIKYNNQLATRTAQAIFDDSYLGYSVAVGDFNGDGIDDFVSGVPRAARTLGMVYIYDGKNMSSLYNFTGEQMAAYFGFSVAATDINGDDYADVFIGAPLFMDRGSDGKLQEVGQVSVSLQRASGDFQTTKLNGFEVFARFGSAIAPLGDLDQDGFNDIAIAAPYGGEDKKGIVYIFNGRSTGLNAVPSQILEGQWAARSMPPSFGYSMKGATDIDKNGYPDLIVGAFGVDRAILYRARPVITVNAGLEVYPSILNQDNKTCSLPGTALKVSCFNVRFCLKADGKGVLPRKLNFQVELLLDKLKQKGAIRRALFLYSRSPSHSKNMTISRGGLMQCEELIAYLRDESEFRDKLTPITIFMEYRLDYRTAADTTGLQPILNQFTPANISRQAHILLDCGEDNVCKPKLEVSVDSDQKKIYIGDDNPLTLIVKAQNQGEGAYEAELIVSIPLQADFIGVVRNNEALARLSCAFKTENQTRQVVCDLGNPMKAGTQLLAGLRFSVHQQSEMDTSVKFDLQIQSSNLFDKVSPVVSHKVDLAVLAAVEIRGVSSPDHVFLPIPNWEHKENPETEEDVGPVVQHIYELRNNGPSSFSKAMLHLQWPYKYNNNTLLYILHYDIDGPMNCTSDMEINPLRIKISSLQTTEKNDTVAGQGERDHLITKRDLALSEGDIHTLGCGVAQCLKIVCQVGRLDRGKSAILYVKSLLWTETFMNKENQNHSYSLKSSASFNVIEFPYKNLPIEDITNSTLVTTNVTWGIQPAPMPV
# chain 2: GCALGGAETCEDCLLIGPQCAWCAQENFTHPSGVGERCDTPANLLAKGCQLNFIENPVSQVEILKNKPLSVGRQKNSSDIVQIAPQSLILKLRPGGAQTLQVHVRQTEDYPVDLYYLMDLSASMDDDLNTIKELGSRLSKEMSKLTSNFRLGFGSFVEKPVSPFVKTTPEEIANPCSSIPYFCLPTFGFKHILPLTNDAERFNEIVKNQKISANIDTPEGGFDAIMQAAVCKEKIGWRNDSLHLLVFVSDADSHFGMDSKLAGIVIPNDGLCHLDSKNEYSMSTVLEYPTIGQLIDKLVQNNVLLIFAVTQEQVHLYENYAKLIPGATVGLLQKDSGNILQLIISAYEELRSEVELEVLGDTEGLNLSFTAICNNGTLFQHQKKCSHMKVGDTASFSVTVNIPHCERRSRHIIIKPVGLGDALELLVSPECNCDCQKEVEVNSSKCHHGNGSFQCGVCACHPGHMGPRCECGEDMLSTDSCKEAPDHPSCSGRGDCYCGQCICHLSPYGNIYGPYCQCDNFSCVRHKGLLCGGNGDCDCGECVCRSGWTGEYCNCTTSTDSCVSEDGVLCSGRGDCVCGKCVCTNPGASGPTCERCPTCGDPCNSKRSCIECHLSAAGQAREECVDKCKLAGATISEEEDFSKDGSVSCSLQGENECLITFLITTDNEGKTIIHSINEKDCPKPPNIP
# Molecular target: monomeric biotinylated FN7-10 (biotin (biotinylated; site not stated))
# Assay: SPR
binder,measurement,value
B1,kont relative to α5β1,~0.5 fold
